Experimental data from US20150064751.

B1: periplasmically-targeted bovine enterokinase expressed with the DsbA periplasmic signal sequence (protein)
chain: IVGGSDSREGAWPWVVALYFDDQQVCGASLVSRDWLVSAAHCVYGRNMEPSKWKAVLGLHMASNLTSPQIETRLIDQIVINPHYNKRRKNNDIAMMHLEMKVNYTDYIQPICLPEENQVFPPGRICSIAGWGALIYQGSTADVLQEADVPLLSNEKCQQQMPEYNITENMVCAGYEAGGVDSCQGDSGGPLMCQENNRWLLAGVTSFGYQCALPNRPGVYARVPRFTEWIQSFLH
B2: periplasmically-targeted bovine enterokinase expressed with the OmpA periplasmic signal sequence (protein)
chain: B1 chain
B3: periplasmically-targeted bovine enterokinase expressed with the MalE periplasmic signal sequence (protein)
chain: B1 chain

Each protein was assayed against cleavage control protein containing an enterokinase cleavage site (Asp-Asp-Asp-Asp-Lys).

Row | Protein | cleavage of the 48 kDa control protein into 32 and 16 kDa fragments (SDS-PAGE, Coomassie; periplasmic fraction, 30 C, 24 h)
1 | B1 | the periplasmically localized enterokinase is active in cleaving the target protein
2 | B2 | the periplasmically localized enterokinase is active in cleaving the target protein
3 | B3 | the periplasmically localized enterokinase is active in cleaving the target protein
